Source: PMC2863070
Each block holds one binder with its values, some of them ahead of it.

Target: HSV-2 virion protein 22 (VP22), encoded by gene UL49 peptide on HLA-B*07:02 (human)
Assay: 51Cr release
Conditions: chains alpha TCRAV38-2 CDR3:beta TCRBV5-1 CDR3

EC50 of peptide: 0.11 nM
B1: clone 9.30 (peptide)
chain 1: CAFGRGAQKLVF
chain 2: CATRIGWGTDTQYF

EC50 of peptide: 0.1 nM
B2: clone 9.66 (peptide)
chain 1: CAFGRGAQKLVF
chain 2: CATRIGWGTDTQYF
